The source of these data is publication PMC4881466.

The target in this data set is Lys69 (UniProt position 69, KALAVKVFKMT). The data set can be described thus: UV-vis. The settings on record: not stated (100 mM buffers); 100 mM sodium phosphate/citrate (pH 4-6), sodium phosphate (pH 6.2-8.6), sodium carbonate (pH > 8.6); ferrous-deoxy, no exogenous ligand.

By pKa is commonly meant the negative logarithm of the acid dissociation constant. As to “Non-symbiotic hemoglobin 2 (AHb2) H66L mutant (Arabidopsis thaliana; H66L)”, the pKa is 10 ± 0.2.
